These results are taken from patent publication US20250145684A1 (IMMATICS BIOTECHNOLOGIES, published 2025).

The target of the test is T1, HLA-B*08:01 (human).
T1 construct: MHC monomer first loaded with a UV-sensitive peptide that is cleaved by UV light and exchanged for the test peptide
Put plainly: UV peptide exchange ELISA. An excerpt:
Candidate peptides for T cell based therapies according to the present invention were further tested for their MHC binding capacity (affinity). The individual peptide-MHC complexes were produced by UV-ligand exchange, where a UV-sensitive peptide is cleaved upon UV-irradiation and exchanged with the peptide of interest as analyzed. Only peptide candidates that can effectively bind and stabilize the peptide-receptive MHC molecules prevent dissociation of the MHC complexes. To determine the yield of the exchange reaction, an ELISA was performed based on the detection of the light chain (β2m) of stabilized MHC complexes. The assay was performed as generally described in Rodenko et al. (Rodenko et al., 2006).
96 well MAXISorp plates (NUNC) were coated over night with 2 ug/ml streptavidin in PBS at room temperature, washed 4× and blocked for 1 h at 37° C. in 2% BSA containing blocking buffer. Refolded HLA-A*02:01/MLA-001 monomers served as standards, covering the range of 15-500 ng/ml. Peptide-MHC monomers of the UV-exchange reaction were diluted 100-fold in blocking buffer. Samples were incubated for 1 h at 37° C., washed four times, incubated with 2 ug/ml HRP conjugated anti-β2m for 1 h at 37° C., washed again and detected with TMB solution that is stopped with […]. Absorption was measured at 450 nm. Candidate peptides that show a high exchange yield (preferably higher than 50%, most preferred higher than 75%) are generally preferred for a generation and production of antibodies or fragments thereof, and/or T cell receptors or fragments thereof, as they show sufficient avidity to the MHC molecules and prevent dissociation of the MHC complexes.
In general terms: ELISA stands for enzyme-linked immunosorbent assay.

For QNSLRHNL [QNSLRHNL (SEQ ID NO: 165)], the peptide exchange yield fell in the range of 20 to 50%.
Molecule ELLNRIYF [ELLNRIYF (SEQ ID NO: 190)] returned a peptide exchange yield of 20 to 50%.
On to ILKEQSSSSF [ILKEQSSSSF (SEQ ID NO: 156)], for which the peptide exchange yield was 20 to 50%.
For DLRNKIIA [DLRNKIIA (SEQ ID NO: 159)] the value was 20 to 50%.
As to LDLRQKVL [LDLRQKVL (SEQ ID NO: 196)], the peptide exchange yield was 20 to 50%.
ILHLSAIAL [ILHLSAIAL (SEQ ID NO: 182)] had a peptide exchange yield not below 75%.
For DIVPPFSAF [DIVPPFSAF (SEQ ID NO: 161)] the value was 20 to 50%; for NRKPRTPF [NRKPRTPF (SEQ ID NO: 16)], 20 to 50%.
For HAIPHYVTM [HAIPHYVTM (SEQ ID NO: 153)] the value was 20 to 50%; for QIMPKAGL [QIMPKAGL (SEQ ID NO: 2)], 50 to 75%; for RIPEKASFL [RIPEKASFL (SEQ ID NO: 202)], 20 to 50%.
As for VAAARAVPV [VAAARAVPV (SEQ ID NO: 200)], the figure is 20 to 50%; as for DVYTQVSAF [DVYTQVSAF (SEQ ID NO: 203)], 20 to 50%.
Take EVMAQFKEI [EVMAQFKEI (SEQ ID NO: 163)]: the peptide exchange yield lay in the range of 20 to 50%.
Molecule DVIIKGNGL [DVIIKGNGL (SEQ ID NO: 158)] showed a peptide exchange yield of 20 to 50%.
As for MSPLLRSI [MSPLLRSI (SEQ ID NO: 204)], the figure is 20 to 50%.
On to LLKKIEHA [LLKKIEHA (SEQ ID NO: 15)], for which the peptide exchange yield is 20 to 50%.
As for FTLLRRLSL [FTLLRRLSL (SEQ ID NO: 19)], the figure is 50 to 75%; as for FPSQVPKQVL [FPSQVPKQVL (SEQ ID NO: 171)], 20 to 50%; as for RPLKPGEVL [RPLKPGEVL (SEQ ID NO: 191)], 20 to 50%.
For LPLTEHEL [LPLTEHEL (SEQ ID NO: 179)] the value was 50 to 75%.
As for RAIEHVLQV [RAIEHVLQV (SEQ ID NO: 194)], the figure is 50 to 75%; as for IPFIHLPEI [IPFIHLPEI (SEQ ID NO: 199)], 20 to 50%; as for LSLVRKAL [LSLVRKAL (SEQ ID NO: 18)], 50 to 75%.
LPAPIPTLL [LPAPIPTLL (SEQ ID NO: 164)]: the peptide exchange yield fell in the range of 20 to 50%.
The molecule APDNVLLTL [APDNVLLTL (SEQ ID NO: 189)] displayed a peptide exchange yield of 20 to 50%.
MRFQQFLFA [MRFQQFLFA (SEQ ID NO: 175)]: the peptide exchange yield lay in the range of 10 to 20%.
For SPANVRGQSL [SPANVRGQSL (SEQ ID NO: 170)] the value was 20 to 50%; for PYEKVSRL [PYEKVSRL (SEQ ID NO: 172)], 20 to 50%.
Molecule DMKITVSL [DMKITVSL (SEQ ID NO: 167)] returned a peptide exchange yield of 50 to 75%.
For YELNNLHAL [YELNNLHAL (SEQ ID NO: 169)] the value was 20 to 50%.
For HAMPSPRIL [HAMPSPRIL (SEQ ID NO: 174)] the value was 20 to 50%; for LPASFPAVL [LPASFPAVL (SEQ ID NO: 155)], 20 to 50%.
As for EEKHFTTL [EEKHFTTL (SEQ ID NO: 192)], the figure is 20 to 50%; as for LFKQTKINL [LFKQTKINL (SEQ ID NO: 162)], 20 to 50%.
In turn, LLILKTVL [LLILKTVL (SEQ ID NO: 17)] showed a peptide exchange yield of 50 to 75%.
As for YVSKPGAQL [YVSKPGAQL (SEQ ID NO: 183)], the figure is 20 to 50%.
DRLKPLKM [DRLKPLKM (SEQ ID NO: 184)] came in with a peptide exchange yield of 20 to 50%.
Molecule YPLLKDPSL [YPLLKDPSL (SEQ ID NO: 173)] yielded a peptide exchange yield of 50 to 75%.
In turn, YKAYPSQL [YKAYPSQL (SEQ ID NO: 197)] came in with a peptide exchange yield of 20 to 50%.
As for SVPVRSSPL [SVPVRSSPL (SEQ ID NO: 177)], the figure is 20 to 50%; as for FNKLVTEL [FNKLVTEL (SEQ ID NO: 152)], 20 to 50%.
As for EIMEKTTL [EIMEKTTL (SEQ ID NO: 188)], the figure is 20 to 50%; as for MELKTVKPI [MELKTVKPI (SEQ ID NO: 185)], 20 to 50%.
As for DLISPRQPRL [DLISPRQPRL (SEQ ID NO: 186)], the figure is 20 to 50%; as for EGNQKSVI [EGNQKSVI (SEQ ID NO: 195)], 20 to 50%; as for DRHLTNRVL [DRHLTNRVL (SEQ ID NO: 151)], 20 to 50%.
LPINNTHI [LPINNTHI (SEQ ID NO: 160)] yielded a peptide exchange yield of 20 to 50%.
For YVIQRQSVL [YVIQRQSVL (SEQ ID NO: 176)] the value was 20 to 50%; for VLKTLQEL [VLKTLQEL (SEQ ID NO: 154)], 20 to 50%; for MRSSYIREL [MRSSYIREL (SEQ ID NO: 150)], 20 to 50%.
For HVQDFTAF [HVQDFTAF (SEQ ID NO: 168)] the value was 20 to 50%; for FPLTSIIAI [FPLTSIIAI (SEQ ID NO: 198)], 50 to 75%.
As for ILKRFLAC [ILKRFLAC (SEQ ID NO: 20)], the figure is 50 to 75%; as for SIRSSYSRF [SIRSSYSRF (SEQ ID NO: 181)], 20 to 50%; as for LAVPIFVAL [LAVPIFVAL (SEQ ID NO: 180)], 20 to 50%.
VPYNSVLF [VPYNSVLF (SEQ ID NO: 187)]: the peptide exchange yield was in the range of 20 to 50%.
In the case of QPYRFPQA [QPYRFPQA (SEQ ID NO: 157)], the peptide exchange yield fell in the range of 20 to 50%.
As for IPRLAVISI [IPRLAVISI (SEQ ID NO: 178)], the figure is 20 to 50%; as for VLSGGRILAL [VLSGGRILAL (SEQ ID NO: 166)], 20 to 50%.
For LGGLRLTAL [LGGLRLTAL (SEQ ID NO: 193)] the value was 20 to 50%.
For TASAMQHVL [TASAMQHVL (SEQ ID NO: 201)] the value was 50 to 75%.
